Source: paper PMC3182996
pKd: −log10 of the molar value.

Key:
[1] = target: Aβ^40Arc fibrils (pre-formed fibrils of Aβ1–40 Glu22Gly); assay: SPR; co-injection: 2 µM Aβ injected for 30 s over immobilised pre-formed fibrils at 20 µl/min in PBS at 25°C, at once followed by 0–400 nM Aβ; the concentration that gives a plateau (critical concentration) is taken as the binding constant
[2] = target: Aβ^40WT fibrils (pre-formed fibrils of wild type Aβ1–40) (UniProt P05067); assay: as above

- pKd [1]: 7.00
- pKd [2]: 7.30
Substance: Aβ1–40 Glu22Gly (Arctic variant), monomeric (peptide)
